Here are results for eight molecules from patent publication EP4700044A1, “PROTEIN ANALOGUE AND USE THEREOF” (Shanghai Duomirui Biotechnology., Ltd., priority 2023, dated 2024).

Substitutions are numbered along the chain they refer to.

Sequences and labels used below:
B1: Compound 12.4: Fatty acid-modified PAS-FGF21 dimer: PAS100FGF21 (SEQ ID NO: 16) modified by the side chain of Example 8.5 (conjugate)
chain: SPCASPAAPAPASPAAPAPSAPAAASAAAPAAASAAASAPSAASAAASPAAPSAPPAAASPAAPSAPPAAASPAAPAPASPAASAPSAPAAASPAAPAPASHPIPDSSPLLQFGGQVRQRYLYTDDAQQTEAHLEIREDGTVGGAADQSPESLLQLKALKPGVIQILGVKTSRFLCQRPDGALYGSLHFDPEACSFRERLLEDGYNVYQSEAHGLPLHLPGNKSPHRDPAPRGPARFLPLPGLPPAPPEPPGILAPQPPDVGSSDPLSMVGGSQGRSPSYES
modifications: dimer; fatty acid side chain of Example 8.5
B2: Compound 12.2: Fatty acid-modified PAS-FGF21 dimer: PAS30FGF21 (SEQ ID NO: 14) modified by the side chain of Example 8.5 (conjugate)
chain: SPCASPAAPAPASPAAPAPSAPAAASAAAPAHPIPDSSPLLQFGGQVRQRYLYTDDAQQTEAHLEIREDGTVGGAADQSPESLLQLKALKPGVIQILGVKTSRFLCQRPDGALYGSLHFDPEACSFRERLLEDGYNVYQSEAHGLPLHLPGNKSPHRDPAPRGPARFLPLPGLPPAPPEPPGILAPQPPDVGSSDPLSMVGGSQGRSPSYES
modifications: dimer; fatty acid side chain of Example 8.5
B3: Compound 12.6: Fatty acid-modified PAS-FGF21 dimer: PAS200FGF21 (SEQ ID NO: 17) as printed, modified by the side chain of Example 8.6 (conjugate)
chain: SPCASPAAPAPASPAAPAPSAPAAASAAAPAAASAAASAPSAASAAASPAAPSAPPAAASPAAPSAPPAAASPAAPAPASPAASAPSAPAAASPAAPAPASPAAPAPSAPAAASAAAPAAASAAASAPSASAAASAAAPAAASAAASAPSAASSAASPAAPSAPPAAASPAAPSAPPAAASPAAPAPASPAAPAPSAPAAAHPIPDSSPLLQFGGQVRQRYLYTDDAQQTEAHLEIREDGTVGGAADQSPESLLQLKALKPGVIQILGVKTSRFLCQRPDGALYGSLHFDPEACSFRERLLEDGYNVYQSEAHGLPLHLPGNKSPHRDPAPRGPARFLPLPGLPPAPPEPPGILAPQPPDVGSSDPLSMVGGSQGRSPSYES
modifications: dimer; fatty acid side chain of Example 8.6
B4: Compound 5.7: FGF21D46C mutant (SEQ NO: 7) modified by the albumin-binding agent of Example 2.2 (conjugate)
chain: HPIPDSSPLLQFGGQVRQRYLYTDDAQQTEAHLEIREDGTVGGAACQSPESLLQLKALKPGVIQILGVKTSRFLCQRPDGALYGSLHFDPEACSFRERLLEDGYNVYQSEAHGLPLHLPGNKSPHRDPAPRGPARFLPLPGLPPAPPEPPGILAPQPPDVGSSDPLSMVGGSQGRSPSYES
modifications: albumin-binding agent conjugated
B5: Compound 5.15: FGF21H125C mutant (SEQ NO: 9) modified by the albumin-binding agent of Example 2.4 (conjugate)
chain: B4 chain with C46D, H125C
modifications: albumin-binding agent of Example 2.4
B6: Compound 12.3: Fatty acid-modified PAS-FGF21 dimer: PAS50FGF21 (SEQ ID NO: 15) modified by the side chain of Example 8.5 (conjugate)
chain: SPCASPAAPAPASPAAPAPSAPAAASAAAPAAASAAASAPSAASAAASPAAHPIPDSSPLLQFGGQVRQRYLYTDDAQQTEAHLEIREDGTVGGAADQSPESLLQLKALKPGVIQILGVKTSRFLCQRPDGALYGSLHFDPEACSFRERLLEDGYNVYQSEAHGLPLHLPGNKSPHRDPAPRGPARFLPLPGLPPAPPEPPGILAPQPPDVGSSDPLSMVGGSQGRSPSYES
modifications: dimer; fatty acid side chain of Example 8.5
B7: Compound 12.1: Fatty acid-modified PAS-FGF21 dimer: PAS15FGF21 (SEQ ID NO: 13) modified by the side chain of Example 8.5 (conjugate)
chain: SPCASPAAPAPASPAAHPIPDSSPLLQFGGQVRQRYLYTDDAQQTEAHLEIREDGTVGGAADQSPESLLQLKALKPGVIQILGVKTSRFLCQRPDGALYGSLHFDPEACSFRERLLEDGYNVYQSEAHGLPLHLPGNKSPHRDPAPRGPARFLPLPGLPPAPPEPPGILAPQPPDVGSSDPLSMVGGSQGRSPSYES
modifications: dimer; fatty acid side chain of Example 8.5
B8: Compound 12.5: Fatty acid-modified PAS-FGF21 dimer: PAS200FGF21 (SEQ ID NO: 17) modified by the side chain of Example 8.5 (conjugate)
chain: B3 chain
modifications: dimer; fatty acid side chain of Example 8.5

The term half-life denotes the time in which the quantity being followed falls by half. The EC50 is the concentration giving half of the maximal effect. A lower EC50 goes with a more potent agent.

Tested on in the first series: not listed separately
The experiment in a line: pharmacokinetic test in minipigs. The format is in vivo. The conditions noted are these: 1 mg/kg, subcutaneous injection, plasma, human FGF21 ELISA. As for the experimental part: (§1) The pharmacokinetic properties of protein analogs can be tested in mice or minpigs.
Minipig experiment (N = 3): The injection dose was 1 mg/kg, and the injection method was subcutaneous injection. The blood-collection time points for plasma samples were 0.083, 0.25, 0.5, 1, 2, 4, 6, 8, 12, 24, 48, 72, 96, 120, 144, 168, 192, 216, 240, 264, 288 h. The blood was collected into EDTA·2K-coated test tubes (which must be temporarily stored on ice) and centrifuged at 1200 × g for 10 minutes at 4°C. Subsequently, the plasma was transferred to Micronic tubes and stored at -20°C. The human FGF21 detection ELISA kit (CAT: RD191108200R) produced by Biovendor was used to monitor the blood drug concentration.
On the technique in general: In an ELISA, binding on a coated surface is turned into a signal by an enzyme label.
B1 had a half-life of 75.4 ± 9.4 h.
The same measure, in the same setting: in the case of B2 it was 65.9 ± 3.8 h.
B3 gave a half-life of 61.3 ± 1.1 h.

In a further series the target is T1, FGFR1c and the cofactor β-Klotho (Homo sapiens, UniProt P11362+Q86Z14).
T1 construct: host or cells: iLite FGF21 assay ready cells (genetically engineered reporter gene cell line)
T1 sequence (P11362 22-822): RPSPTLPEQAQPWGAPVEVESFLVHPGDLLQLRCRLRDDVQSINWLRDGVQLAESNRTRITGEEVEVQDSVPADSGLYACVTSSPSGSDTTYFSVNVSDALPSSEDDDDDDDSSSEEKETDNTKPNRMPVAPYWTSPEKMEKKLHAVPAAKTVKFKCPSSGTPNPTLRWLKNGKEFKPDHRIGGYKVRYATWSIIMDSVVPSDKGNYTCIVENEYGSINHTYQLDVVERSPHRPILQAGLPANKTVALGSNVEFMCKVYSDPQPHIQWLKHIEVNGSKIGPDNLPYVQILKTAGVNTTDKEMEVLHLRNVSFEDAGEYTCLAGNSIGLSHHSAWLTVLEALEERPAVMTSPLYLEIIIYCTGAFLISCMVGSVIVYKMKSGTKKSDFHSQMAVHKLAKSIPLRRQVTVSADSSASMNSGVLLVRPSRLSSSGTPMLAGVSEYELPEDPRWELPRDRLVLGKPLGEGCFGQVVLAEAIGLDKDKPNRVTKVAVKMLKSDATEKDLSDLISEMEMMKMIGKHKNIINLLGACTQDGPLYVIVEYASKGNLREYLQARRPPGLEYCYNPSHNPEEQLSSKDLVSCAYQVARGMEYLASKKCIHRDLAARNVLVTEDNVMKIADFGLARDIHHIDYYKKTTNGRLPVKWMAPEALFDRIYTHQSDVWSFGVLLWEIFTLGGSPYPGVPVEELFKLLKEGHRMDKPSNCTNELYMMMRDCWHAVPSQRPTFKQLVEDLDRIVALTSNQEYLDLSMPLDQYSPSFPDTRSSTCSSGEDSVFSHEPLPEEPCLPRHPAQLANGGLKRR
T1 sequence (Q86Z14 whole entry): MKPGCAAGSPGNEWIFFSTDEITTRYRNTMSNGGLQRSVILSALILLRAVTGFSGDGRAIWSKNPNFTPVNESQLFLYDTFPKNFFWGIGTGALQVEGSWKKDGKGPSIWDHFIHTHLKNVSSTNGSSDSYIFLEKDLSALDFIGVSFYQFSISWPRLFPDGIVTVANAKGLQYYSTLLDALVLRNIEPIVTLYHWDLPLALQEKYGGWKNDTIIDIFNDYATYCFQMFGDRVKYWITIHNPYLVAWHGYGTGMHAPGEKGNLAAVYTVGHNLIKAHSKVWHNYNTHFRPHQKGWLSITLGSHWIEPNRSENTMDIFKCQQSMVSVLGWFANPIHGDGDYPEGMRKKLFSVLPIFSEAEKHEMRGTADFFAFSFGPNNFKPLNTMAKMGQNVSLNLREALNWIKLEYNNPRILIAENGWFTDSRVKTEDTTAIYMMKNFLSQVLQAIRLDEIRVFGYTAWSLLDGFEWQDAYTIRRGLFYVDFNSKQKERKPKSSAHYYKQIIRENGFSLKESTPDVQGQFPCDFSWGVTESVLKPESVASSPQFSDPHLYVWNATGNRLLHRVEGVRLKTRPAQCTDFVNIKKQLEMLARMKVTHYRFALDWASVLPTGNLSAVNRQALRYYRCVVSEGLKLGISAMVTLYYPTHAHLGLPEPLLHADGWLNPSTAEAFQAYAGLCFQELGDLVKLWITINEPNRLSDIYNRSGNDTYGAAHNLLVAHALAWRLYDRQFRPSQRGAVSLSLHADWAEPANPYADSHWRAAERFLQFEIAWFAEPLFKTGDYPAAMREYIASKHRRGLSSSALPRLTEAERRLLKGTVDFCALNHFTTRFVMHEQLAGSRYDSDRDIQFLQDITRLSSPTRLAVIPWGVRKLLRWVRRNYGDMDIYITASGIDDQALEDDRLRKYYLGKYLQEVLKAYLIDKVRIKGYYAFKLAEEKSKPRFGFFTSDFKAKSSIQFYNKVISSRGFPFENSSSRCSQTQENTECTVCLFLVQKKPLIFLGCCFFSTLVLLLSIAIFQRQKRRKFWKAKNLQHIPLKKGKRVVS
Briefly: dual-luciferase reporter gene assay in iLite FGF21 assay ready cells. The conditions noted are these: Example 6, four-parameter fitting. The format is cell-based. The source says: iLite FGF21 assay ready cells (purchased from SAVR) is a genetically engineered reporter gene cell line that responds to signals downstream to FGF21 agonism through the expression of firefly luciferase. The receptor FGFR1c and the cofactor β-Klotho were co-overexpressed on the surface of iLite FGF21 assay ready cells and have undergone genetic optimization to enhance sensitivity, such that FGF21 will cause an increase in luciferase expression in a dose-response manner. The luciferase activity detection kit was purchased from Promega (catalog number #E2980).
iLite FGF21 assay ready cells were cultured adherently in basal medium (DMEM Gluta Max, purchased from Gibco) containing 10% fetal bovine serum (FBS, purchased from Gibco) and 1% penicillin/streptomycin (purchased from Gibco). For the activity determination experiment, […] cells per well and test samples such as FGF21 mutant proteins and FGF21 conjugate molecules modified with albumin-binding agent were added to all-white 96-well culture plates (purchased from Corning), and the chemiluminescence values were detected in a microplate reader according to the instructions of the luciferase activity detection kit. Finally, the half-maximal effective concentration (EC50) values of the tested samples were obtained by means of four-parameter fitting.
(In general: A reporter such as luciferase makes a cellular process visible.)
In the case of B4, the EC50 was found to be 1.06 nM.
B5 yielded an EC50 of 0.47 nM.

The same series, now with this note: Example 13, four-parameter fitting.
Molecule B1 had an EC50 of 0.11 nM. In other words, the sub-nanomolar range.
The same measure, in the same setting: in the case of B6 it was 0.11 nM; in that of B7, 0.09 nM; in that of B2, 0.13 nM.
Same read-out and setting: the same measure for B8: 0.09 nM.

The next series has as its system high-fat diet-induced db/db mice. The experiment in a line: pharmacodynamic test in db/db mice induced by high-fat diet (NASH model). The class given is in vivo. The following applies: 5 nmol/kg, subcutaneous injection once every three days, 6 weeks; liver sections, hematoxylin-eosin staining. An excerpt:
Establishment of a db/db mouse model induced by high-fat diet: Male db/db mice, 8 weeks old, were adaptively fed with a standard diet for 2-3 days, after which all feed was replaced with 60% high-fat feed for rearing. After 3 weeks of high-fat feed feeding, the NASH model could be obtained. Administration: N = 6, subcutaneous injection of Vehicle and protein analogues (5 or 20 nmol/kg) was given once every three days, with an administration period of 6 weeks.
At the end of the administration, liver tissue sections were taken for hematoxylin-eosin staining to detect the effect of protein analogs on the non-alcoholic fatty liver disease activity score (NAS score) in high-fat diet-induced db/db mice.
Take B6: the NAS score came out at 4.33 ± 1.37.
Take B7: the NAS score stood at 3.83 ± 0.98.
The same measure, in the same setting: the same measure for B2: 4.33 ± 1.03.

The series is the same for the next values; noted with them: 20 nmol/kg, subcutaneous injection once every three days, 6 weeks; liver sections, hematoxylin-eosin staining.
Take B6: the NAS score is reported as 3.00 ± 0.89.
Same read-out and setting: the same measure for B7: 3.33 ± 0.82.
Still for that read-out and setting: in the case of B2 it was 3.40 ± 1.14.

Tested on in another series: not listed separately
Briefly: pharmacokinetic test in mice. The format is in vivo. The following applies: 1 mg/kg, subcutaneous injection, plasma, human FGF21 ELISA. As for the experimental part: as §1
Mice experiment (N = 3): The injection dose was 1 mg/kg, and the injection method was subcutaneous injection. The blood-collection time points for plasma samples were 0.08, 0.25, 0.5, 1, 2, 4, 6, 8, 12, 24, 48, and 72 hours. The blood was collected into EDTA·2K-coated test tubes (which must be temporarily stored on ice) and centrifuged at 1200 × g for 10 minutes at 4°C. Subsequently, the plasma was transferred to Micronic tubes and stored at -20°C. The human FGF21 detection ELISA kit (RD191108200R) produced by Biovendor was used to monitor the blood drug concentration.
With B4, the half-life turned out to be 15.9 h.
Same read-out and setting: the same measure for B5: 14.1 h.
